One substance from paper PMC3659094 can be followed below.

The target of this assay is human Tyrosine kinase receptor B (TrkB) (human) (UniProt Q16620).
Sequence of UniProt Q16620 (Q16620 other isoform, or with tags, fused parts or gaps): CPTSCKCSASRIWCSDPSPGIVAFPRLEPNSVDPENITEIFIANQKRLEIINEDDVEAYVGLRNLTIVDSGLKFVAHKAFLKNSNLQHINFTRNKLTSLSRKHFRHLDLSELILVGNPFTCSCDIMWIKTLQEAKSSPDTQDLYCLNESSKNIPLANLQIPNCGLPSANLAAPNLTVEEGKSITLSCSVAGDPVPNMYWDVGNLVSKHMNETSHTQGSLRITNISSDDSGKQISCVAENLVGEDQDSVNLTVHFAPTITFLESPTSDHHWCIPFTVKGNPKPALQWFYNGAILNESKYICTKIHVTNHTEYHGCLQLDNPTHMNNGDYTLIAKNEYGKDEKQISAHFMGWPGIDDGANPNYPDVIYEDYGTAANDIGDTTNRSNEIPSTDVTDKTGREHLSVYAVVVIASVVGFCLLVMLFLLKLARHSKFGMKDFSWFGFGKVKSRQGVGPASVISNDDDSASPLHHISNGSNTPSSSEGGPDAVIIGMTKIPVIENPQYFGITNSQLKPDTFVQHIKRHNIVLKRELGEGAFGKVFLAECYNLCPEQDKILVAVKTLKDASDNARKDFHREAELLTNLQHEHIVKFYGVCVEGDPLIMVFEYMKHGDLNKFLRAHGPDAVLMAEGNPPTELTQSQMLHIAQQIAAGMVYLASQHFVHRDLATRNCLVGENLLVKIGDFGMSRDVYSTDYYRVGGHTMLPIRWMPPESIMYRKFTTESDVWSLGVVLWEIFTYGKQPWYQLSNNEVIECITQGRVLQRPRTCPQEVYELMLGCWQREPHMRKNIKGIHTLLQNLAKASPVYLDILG

The substance “brain-derived neurotrophic factor (BDNF) (ligand)” showed an EC50 of recruitment of SHC1 to human TrkB in U2OS cells (Pathhunter) of 1 nM and an EC50 of transcriptional activation of a CRE-luciferase reporter in HEK293 cells expressing human TrkB of 5.2 nM.
